# Patent US20140087995A1 (published 2014)
# Numbered stars: 1 amine (or outer) side, 2 acyl side, 3 side chain; on linkers, the order of the positions; unused ones are H or OH. Bridge positions count the residues as written; N and C are the ends. Side chains are listed from the residue outwards. Ends that are not written are not given here. * marks the point of attachment. C20 diacid = O=C(O)CCCCCCCCCCCCCCCCCCC(=O)*; γGlu = O=C(O)[C@H](CCC(=O)[*:2])N[*:1]; AEEA = NCCOCCOCC(=O)O
# T1: human calcitonin receptor (human, UniProt P30988 25-474)
# T1 construct: whole, on cells; Used as membranes prepared from a BHK tk'ts 13 cell line stably transfected with the human calcitonin receptor (Assay VII); also called hCTR; hCT
# T1 sequence (looked up): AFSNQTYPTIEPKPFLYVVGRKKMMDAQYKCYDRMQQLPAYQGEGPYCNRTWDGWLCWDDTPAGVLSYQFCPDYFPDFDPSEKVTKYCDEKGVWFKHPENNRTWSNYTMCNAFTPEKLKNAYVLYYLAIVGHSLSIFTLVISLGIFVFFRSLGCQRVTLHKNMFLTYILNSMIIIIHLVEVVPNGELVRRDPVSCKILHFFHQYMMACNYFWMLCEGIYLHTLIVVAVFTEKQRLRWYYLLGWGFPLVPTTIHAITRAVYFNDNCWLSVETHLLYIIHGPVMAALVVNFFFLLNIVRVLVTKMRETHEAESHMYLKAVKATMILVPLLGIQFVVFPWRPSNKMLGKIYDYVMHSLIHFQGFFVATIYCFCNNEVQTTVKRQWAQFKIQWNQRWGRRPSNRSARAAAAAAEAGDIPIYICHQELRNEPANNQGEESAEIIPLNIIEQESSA
# T2: rat calcitonin receptor (rat, UniProt P32214 25-516)
# T2 construct: whole, on cells; Used as membranes prepared from BHK tk'ts 13 cells transiently transfected with the rat calcitonin receptor (Assay VIII); also called rCTR; rat calcitonin (a) receptor
# T2 sequence (looked up): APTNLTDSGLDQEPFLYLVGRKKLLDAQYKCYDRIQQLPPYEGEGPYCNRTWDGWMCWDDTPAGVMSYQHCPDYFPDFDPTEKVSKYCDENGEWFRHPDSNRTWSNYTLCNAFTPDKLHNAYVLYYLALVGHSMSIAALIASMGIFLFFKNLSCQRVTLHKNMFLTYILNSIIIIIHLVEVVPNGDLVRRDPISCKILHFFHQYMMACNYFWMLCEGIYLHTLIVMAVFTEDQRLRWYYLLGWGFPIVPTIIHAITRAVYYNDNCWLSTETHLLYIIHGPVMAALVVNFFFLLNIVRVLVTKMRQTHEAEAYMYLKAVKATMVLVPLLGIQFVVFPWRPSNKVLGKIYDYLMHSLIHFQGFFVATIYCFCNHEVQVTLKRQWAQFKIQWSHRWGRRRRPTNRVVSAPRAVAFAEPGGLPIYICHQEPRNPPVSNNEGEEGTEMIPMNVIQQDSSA
# T3: rat amylin receptor (rat calcitonin receptor + rat RAMP 3) (rat, UniProt P32214 25-516; Q9JJ73 23-147)
# T3 construct: whole, on cells; Used as membranes prepared from BHK tk'ts 13 cells transiently transfected with rat calcitonin receptor and rat RAMP 3 (Assay VI); also called rAmylin-R; rat amylin 3(a) receptor
# T3 sequence (looked up) 1: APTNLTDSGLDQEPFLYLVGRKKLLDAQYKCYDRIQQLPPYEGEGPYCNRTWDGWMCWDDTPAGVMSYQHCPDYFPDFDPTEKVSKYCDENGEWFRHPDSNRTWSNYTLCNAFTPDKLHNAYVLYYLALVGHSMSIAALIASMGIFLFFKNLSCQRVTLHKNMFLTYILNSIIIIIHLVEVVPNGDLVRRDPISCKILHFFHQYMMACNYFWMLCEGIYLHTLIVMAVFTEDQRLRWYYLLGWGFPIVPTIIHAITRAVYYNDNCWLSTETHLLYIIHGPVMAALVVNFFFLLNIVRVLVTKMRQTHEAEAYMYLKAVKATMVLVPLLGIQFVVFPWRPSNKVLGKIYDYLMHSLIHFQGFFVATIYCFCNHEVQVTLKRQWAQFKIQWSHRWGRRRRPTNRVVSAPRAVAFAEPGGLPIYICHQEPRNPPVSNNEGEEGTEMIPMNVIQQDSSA
# T3 sequence (looked up) 2: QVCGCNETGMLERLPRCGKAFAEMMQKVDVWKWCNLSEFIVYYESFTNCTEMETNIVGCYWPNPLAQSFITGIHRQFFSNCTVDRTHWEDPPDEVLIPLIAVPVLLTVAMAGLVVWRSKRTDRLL
# Tests used:
# [1] = target: T1, human calcitonin receptor; assay: IC50 on human CTR divided by IC50 on human amylin receptor (Assays VII/V)
# Summary of the method: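 Competition binding by SPA with cell membranes (35 ng/μL) and SPA beads in 50 mM Hepes pH 7.4 with 1 mM CaCl2, 5 mM MgCl2, 0.1% OA and 0.02% Tween20. Incubated 120 min at 25 °C with shaking, then counted.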
# [2] = target: T2, rat calcitonin receptor; assay: IC50 on rat CTR divided by IC50 on rat amylin receptor (Assays VIII/VI)
# [3] = target: T3, rat amylin receptor (rat calcitonin …); assay: SPA competition with 125I-rat amylin, membranes of BHK cells with rat CTR + rat RAMP3 (Assay VI)
# [4] = target: T2, rat calcitonin receptor; assay: SPA competition with 125I-calcitonin, membranes of BHK cells with rat CTR (Assay VIII)
Binder,Ratio hCT/hAmylin binding [1],Ratio rCT/rAmylin binding [2],IC50 [3] [nM],IC50 [4] [nM]
"K([γGlu-C20 diacid])RCNTATCATQRLANFLRHSSPNFGAIPSSTNVGSHTY-NH2 (disulfide 3-8; N-terminus assumed; SMILES CC[C@H](C)[C@H](NC(=O)[C@H](C)NC(=O)CNC(=O)[C@H](Cc1ccccc1)NC(=O)[C@H](CC(N)=O)NC(=O)[C@@H]1CCCN1C(=O)[C@H](CO)NC(=O)[C@H](CO)NC(=O)[C@H](Cc1c[nH]cn1)NC(=O)[C@H](CCCNC(=N)N)NC(=O)[C@H](CC(C)C)NC(=O)[C@H](Cc1ccccc1)NC(=O)[C@H](CC(N)=O)NC(=O)[C@H](C)NC(=O)[C@H](CC(C)C)NC(=O)[C@H](CCCNC(=N)N)NC(=O)[C@H](CCC(N)=O)NC(=O)[C@@H](NC(=O)[C@H](C)NC(=O)[C@@H]1CSSC[C@H](NC(=O)[C@H](CCCNC(=N)N)NC(=O)[C@@H](N)CCCCNC(=O)CC[C@H](NC(=O)CCCCCCCCCCCCCCCCCCC(=O)O)C(=O)O)C(=O)N[C@@H](CC(N)=O)C(=O)N[C@@H]([C@@H](C)O)C(=O)N[C@@H](C)C(=O)N[C@@H]([C@@H](C)O)C(=O)N1)[C@@H](C)O)C(=O)N1CCC[C@H]1C(=O)N[C@@H](CO)C(=O)N[C@@H](CO)C(=O)N[C@H](C(=O)N[C@@H](CC(N)=O)C(=O)N[C@H](C(=O)NCC(=O)N[C@@H](CO)C(=O)N[C@@H](Cc1c[nH]cn1)C(=O)N[C@H](C(=O)N[C@@H](Cc1ccc(O)cc1)C(N)=O)[C@@H](C)O)C(C)C)[C@@H](C)O, Analogue of human amylin; also called compound 44)",17.7,53.3,0.369,19.6
"KCNTATCATQRLADFLRHSSK([γGlu-γGlu-C20 diacid])NFGAIPSSTNVGSDTY-NH2 (disulfide 2-7; N-terminus assumed; SMILES CC[C@H](C)[C@H](NC(=O)[C@H](C)NC(=O)CNC(=O)[C@H](Cc1ccccc1)NC(=O)[C@H](CC(N)=O)NC(=O)[C@H](CCCCNC(=O)CC[C@H](NC(=O)CC[C@H](NC(=O)CCCCCCCCCCCCCCCCCCC(=O)O)C(=O)O)C(=O)O)NC(=O)[C@H](CO)NC(=O)[C@H](CO)NC(=O)[C@H](Cc1c[nH]cn1)NC(=O)[C@H](CCCNC(=N)N)NC(=O)[C@H](CC(C)C)NC(=O)[C@H](Cc1ccccc1)NC(=O)[C@H](CC(=O)O)NC(=O)[C@H](C)NC(=O)[C@H](CC(C)C)NC(=O)[C@H](CCCNC(=N)N)NC(=O)[C@H](CCC(N)=O)NC(=O)[C@@H](NC(=O)[C@H](C)NC(=O)[C@@H]1CSSC[C@H](NC(=O)[C@@H](N)CCCCN)C(=O)N[C@@H](CC(N)=O)C(=O)N[C@@H]([C@@H](C)O)C(=O)N[C@@H](C)C(=O)N[C@@H]([C@@H](C)O)C(=O)N1)[C@@H](C)O)C(=O)N1CCC[C@H]1C(=O)N[C@@H](CO)C(=O)N[C@@H](CO)C(=O)N[C@H](C(=O)N[C@@H](CC(N)=O)C(=O)N[C@H](C(=O)NCC(=O)N[C@@H](CO)C(=O)N[C@@H](CC(=O)O)C(=O)N[C@H](C(=O)N[C@@H](Cc1ccc(O)cc1)C(N)=O)[C@@H](C)O)C(C)C)[C@@H](C)O, Analogue of human amylin; also called compound 59)",4.3,28.5,0.659,18.8

# Other lines, results leading:
Ratio hCT/hAmylin binding [1],Ratio rCT/rAmylin binding [2],IC50 [3] [nM],IC50 [4] [nM],Binder
44.9,84.3,0.203,17.1,"{C20 diacid-γGlu}-GRCNTATCATQRLANFLRHSSPNFGAIPSSTNVGSHTY-NH2 (disulfide 3-8; SMILES CC[C@H](C)[C@H](NC(=O)[C@H](C)NC(=O)CNC(=O)[C@H](Cc1ccccc1)NC(=O)[C@H](CC(N)=O)NC(=O)[C@@H]1CCCN1C(=O)[C@H](CO)NC(=O)[C@H](CO)NC(=O)[C@H](Cc1c[nH]cn1)NC(=O)[C@H](CCCNC(=N)N)NC(=O)[C@H](CC(C)C)NC(=O)[C@H](Cc1ccccc1)NC(=O)[C@H](CC(N)=O)NC(=O)[C@H](C)NC(=O)[C@H](CC(C)C)NC(=O)[C@H](CCCNC(=N)N)NC(=O)[C@H](CCC(N)=O)NC(=O)[C@@H](NC(=O)[C@H](C)NC(=O)[C@@H]1CSSC[C@H](NC(=O)[C@H](CCCNC(=N)N)NC(=O)CNC(=O)CC[C@H](NC(=O)CCCCCCCCCCCCCCCCCCC(=O)O)C(=O)O)C(=O)N[C@@H](CC(N)=O)C(=O)N[C@@H]([C@@H](C)O)C(=O)N[C@@H](C)C(=O)N[C@@H]([C@@H](C)O)C(=O)N1)[C@@H](C)O)C(=O)N1CCC[C@H]1C(=O)N[C@@H](CO)C(=O)N[C@@H](CO)C(=O)N[C@H](C(=O)N[C@@H](CC(N)=O)C(=O)N[C@H](C(=O)NCC(=O)N[C@@H](CO)C(=O)N[C@@H](Cc1c[nH]cn1)C(=O)N[C@H](C(=O)N[C@@H](Cc1ccc(O)cc1)C(N)=O)[C@@H](C)O)C(C)C)[C@@H](C)O, Analogue of human amylin; also called compound 47)"
48.9,142,0.33,46.8,"{C20 diacid-γGlu}-GRCNTATCATQRLANFLRHSSPNFGAIPSSTNVGSNTY-NH2 (disulfide 3-8; SMILES CC[C@H](C)[C@H](NC(=O)[C@H](C)NC(=O)CNC(=O)[C@H](Cc1ccccc1)NC(=O)[C@H](CC(N)=O)NC(=O)[C@@H]1CCCN1C(=O)[C@H](CO)NC(=O)[C@H](CO)NC(=O)[C@H](Cc1c[nH]cn1)NC(=O)[C@H](CCCNC(=N)N)NC(=O)[C@H](CC(C)C)NC(=O)[C@H](Cc1ccccc1)NC(=O)[C@H](CC(N)=O)NC(=O)[C@H](C)NC(=O)[C@H](CC(C)C)NC(=O)[C@H](CCCNC(=N)N)NC(=O)[C@H](CCC(N)=O)NC(=O)[C@@H](NC(=O)[C@H](C)NC(=O)[C@@H]1CSSC[C@H](NC(=O)[C@H](CCCNC(=N)N)NC(=O)CNC(=O)CC[C@H](NC(=O)CCCCCCCCCCCCCCCCCCC(=O)O)C(=O)O)C(=O)N[C@@H](CC(N)=O)C(=O)N[C@@H]([C@@H](C)O)C(=O)N[C@@H](C)C(=O)N[C@@H]([C@@H](C)O)C(=O)N1)[C@@H](C)O)C(=O)N1CCC[C@H]1C(=O)N[C@@H](CO)C(=O)N[C@@H](CO)C(=O)N[C@H](C(=O)N[C@@H](CC(N)=O)C(=O)N[C@H](C(=O)NCC(=O)N[C@@H](CO)C(=O)N[C@@H](CC(N)=O)C(=O)N[C@H](C(=O)N[C@@H](Cc1ccc(O)cc1)C(N)=O)[C@@H](C)O)C(C)C)[C@@H](C)O, Analogue of human amylin; also called compound 46) [N^-1-[(4S)-4-carboxy-4-(19-carboxynonadecanoylamino)butanoyl]-Gly[Arg1,Arg17,Pro21,Pro27]-h-amylin]"
26.8,67.1,0.623,41.8,"K([AEEA-γGlu-C20 diacid])RCNTATCATQRLANFLRHSSPNFGAIPSSTNVGSHTY-NH2 (disulfide 3-8; N-terminus assumed; SMILES CC[C@H](C)[C@H](NC(=O)[C@H](C)NC(=O)CNC(=O)[C@H](Cc1ccccc1)NC(=O)[C@H](CC(N)=O)NC(=O)[C@@H]1CCCN1C(=O)[C@H](CO)NC(=O)[C@H](CO)NC(=O)[C@H](Cc1c[nH]cn1)NC(=O)[C@H](CCCNC(=N)N)NC(=O)[C@H](CC(C)C)NC(=O)[C@H](Cc1ccccc1)NC(=O)[C@H](CC(N)=O)NC(=O)[C@H](C)NC(=O)[C@H](CC(C)C)NC(=O)[C@H](CCCNC(=N)N)NC(=O)[C@H](CCC(N)=O)NC(=O)[C@@H](NC(=O)[C@H](C)NC(=O)[C@@H]1CSSC[C@H](NC(=O)[C@H](CCCNC(=N)N)NC(=O)[C@@H](N)CCCCNC(=O)COCCOCCNC(=O)CC[C@H](NC(=O)CCCCCCCCCCCCCCCCCCC(=O)O)C(=O)O)C(=O)N[C@@H](CC(N)=O)C(=O)N[C@@H]([C@@H](C)O)C(=O)N[C@@H](C)C(=O)N[C@@H]([C@@H](C)O)C(=O)N1)[C@@H](C)O)C(=O)N1CCC[C@H]1C(=O)N[C@@H](CO)C(=O)N[C@@H](CO)C(=O)N[C@H](C(=O)N[C@@H](CC(N)=O)C(=O)N[C@H](C(=O)NCC(=O)N[C@@H](CO)C(=O)N[C@@H](Cc1c[nH]cn1)C(=O)N[C@H](C(=O)N[C@@H](Cc1ccc(O)cc1)C(N)=O)[C@@H](C)O)C(C)C)[C@@H](C)O, Analogue of human amylin; also called compound 45)"
